The text below walks through data of patent publication US20110166062A1 (INDIANA UNIVERSITY RESEARCH AND TECHNOLOGY, published 2011).

Primed or numbered codes have the meaning given here. Where no end group is shown, it is not given here. [ ]: non-standard residue; d: D form. The star is where a group is joined. PEG 40 kDa″ = polyethylene glycol of 40 kDa covalently attached to the side chain; Met(O) = CS(=O)CC[C@H](N)C(=O)O; Nle = CCCC[C@H](N)C(=O)O; Orn = NCCC[C@H](N)C(=O)O; Dab = NCC[C@H](N)C(=O)O; Dap = NC[C@H](N)C(=O)O; Aib = CC(C)(N)C(=O)O; Carbamoyl = NC(=O)*; Acm = CC(=O)NC*

What all share (assay): cell-based or functional assay
One assay deals with T1, GIP receptor (UniProt P48546 22-466).
T1 sequence (looked up): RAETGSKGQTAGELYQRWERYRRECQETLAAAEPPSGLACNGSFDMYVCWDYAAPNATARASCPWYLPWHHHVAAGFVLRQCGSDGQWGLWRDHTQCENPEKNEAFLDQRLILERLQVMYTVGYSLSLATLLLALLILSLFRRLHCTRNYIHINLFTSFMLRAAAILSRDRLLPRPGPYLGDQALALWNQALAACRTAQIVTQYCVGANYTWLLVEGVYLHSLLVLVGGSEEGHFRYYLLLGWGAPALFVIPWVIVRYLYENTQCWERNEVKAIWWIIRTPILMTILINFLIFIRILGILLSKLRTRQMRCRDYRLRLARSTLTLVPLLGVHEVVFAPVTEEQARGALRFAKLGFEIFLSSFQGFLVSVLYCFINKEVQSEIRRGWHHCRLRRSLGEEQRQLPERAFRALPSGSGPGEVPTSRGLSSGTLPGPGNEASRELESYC

Assay [1] deals with glucagon receptor (UniProt P47871 26-477, limits assumed).
Target sequence in this assay (P47871 26-477 limits assumed): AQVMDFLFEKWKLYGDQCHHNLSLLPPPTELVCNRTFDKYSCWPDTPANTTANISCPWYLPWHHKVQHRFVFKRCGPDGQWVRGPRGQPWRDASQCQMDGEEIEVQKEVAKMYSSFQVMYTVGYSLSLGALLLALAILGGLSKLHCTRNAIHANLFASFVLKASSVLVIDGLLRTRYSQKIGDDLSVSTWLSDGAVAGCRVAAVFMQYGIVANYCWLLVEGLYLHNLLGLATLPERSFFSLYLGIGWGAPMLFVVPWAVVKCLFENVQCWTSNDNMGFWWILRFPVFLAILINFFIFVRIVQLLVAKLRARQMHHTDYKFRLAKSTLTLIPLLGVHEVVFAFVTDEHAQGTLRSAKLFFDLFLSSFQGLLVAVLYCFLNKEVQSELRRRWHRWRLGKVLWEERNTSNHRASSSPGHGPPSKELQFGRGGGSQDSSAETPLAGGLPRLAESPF
The target of the next assay is GLP-1 receptor (UniProt P43220 24-463, limits assumed).
Assay [2] addresses glucagon receptor (UniProt P47871 26-477, limits assumed). This is another data set of the same source.
Target sequence in this assay (P47871 26-477 limits assumed): as above

B1: mt-259 (peptide)
peptide: Y[Aib]QGTFTSDYSIYLDSQAA[Aib]EFVCWLLAG-NH2
modifications: N-terminus assumed
SMILES: CC[C@H](C)[C@H](NC(=O)[C@H](CO)NC(=O)[C@H](Cc1ccc(O)cc1)NC(=O)[C@H](CC(=O)O)NC(=O)[C@H](CO)NC(=O)[C@@H](NC(=O)[C@H](Cc1ccccc1)NC(=O)[C@@H](NC(=O)CNC(=O)[C@H](CCC(N)=O)NC(=O)C(C)(C)NC(=O)[C@@H](N)Cc1ccc(O)cc1)[C@@H](C)O)[C@@H](C)O)C(=O)N[C@@H](Cc1ccc(O)cc1)C(=O)N[C@@H](CC(C)C)C(=O)N[C@@H](CC(=O)O)C(=O)N[C@@H](CO)C(=O)N[C@@H](CCC(N)=O)C(=O)N[C@@H](C)C(=O)N[C@@H](C)C(=O)NC(C)(C)C(=O)N[C@@H](CCC(=O)O)C(=O)N[C@@H](Cc1ccccc1)C(=O)N[C@H](C(=O)N[C@@H](CS)C(=O)N[C@@H](Cc1c[nH]c2ccccc12)C(=O)N[C@@H](CC(C)C)C(=O)N[C@@H](CC(C)C)C(=O)N[C@@H](C)C(=O)NCC(N)=O)C(C)C
As to B1, the concentration for a half-maximal effect (EC50) came to 0.0799 nM in the assay with GIP receptor, 0.297 nM with glucagon receptor [1] and 0.0189 nM with GLP-1 receptor. The relative activity with GIP receptor came out at 12%; with glucagon receptor [1] it was 23.1%; in the assay with GLP-1 receptor, 63%.

B2: Peptide J backbone with C(Acm) at position 3 (peptide)
peptide: HSC(Acm)GTFTSDYSKYLDTRRAAEFVAWL[Nle]DE
On to B2, for which the “% activity*” value with glucagon receptor [2] turned out to be 33%.

B3: Peptide J backbone with Dab(Ac) at position 3 (peptide)
peptide: HS[Dab](Ac)GTFTSDYSKYLDTRRAAEFVAWL[Nle]DE
For B3, in the assay with glucagon receptor [2], the “% activity*” value was 19% and it took 0.31 nM to reach a half-maximal effect (EC50 at Glucagon Receptor).

B4: mt-258 (peptide)
peptide: Y[Aib]QGTFTSDYSIYLDEQAA[Aib]EFVCWLLAG-NH2
modifications: N-terminus assumed
SMILES: CC[C@H](C)[C@H](NC(=O)[C@H](CO)NC(=O)[C@H](Cc1ccc(O)cc1)NC(=O)[C@H](CC(=O)O)NC(=O)[C@H](CO)NC(=O)[C@@H](NC(=O)[C@H](Cc1ccccc1)NC(=O)[C@@H](NC(=O)CNC(=O)[C@H](CCC(N)=O)NC(=O)C(C)(C)NC(=O)[C@@H](N)Cc1ccc(O)cc1)[C@@H](C)O)[C@@H](C)O)C(=O)N[C@@H](Cc1ccc(O)cc1)C(=O)N[C@@H](CC(C)C)C(=O)N[C@@H](CC(=O)O)C(=O)N[C@@H](CCC(=O)O)C(=O)N[C@@H](CCC(N)=O)C(=O)N[C@@H](C)C(=O)N[C@@H](C)C(=O)NC(C)(C)C(=O)N[C@@H](CCC(=O)O)C(=O)N[C@@H](Cc1ccccc1)C(=O)N[C@H](C(=O)N[C@@H](CS)C(=O)N[C@@H](Cc1c[nH]c2ccccc12)C(=O)N[C@@H](CC(C)C)C(=O)N[C@@H](CC(C)C)C(=O)N[C@@H](C)C(=O)NCC(N)=O)C(C)C
For the molecule B4, the “EC50” value in the assay with GIP receptor is 0.057 nM; in the assay with glucagon receptor [1] it was 0.487 nM; with GLP-1 receptor it was 0.0202 nM. In addition, the relative activity in the assay with GIP receptor came out at 16.8%; in the assay with glucagon receptor [1], 14.1%; in the assay with GLP-1 receptor, 58.9%.

B5: Peptide J backbone with M(O) at position 3 (peptide)
peptide: HS[Met(O)]GTFTSDYSKYLDTRRAAEFVAWL[Nle]DE
As for B5, in the assay with glucagon receptor [2], the “% activity*” value worked out at 7% and a half-maximal response (EC50 at Glucagon Receptor) required 0.91 nM.

B6: Peptide K backbone with Dab(Ac) at position 3 (peptide)
peptide: HS[Dab](Ac)GTFTSDYSKYLD[Aib]RRAADFVAWLMDE
As for B6, in the assay with glucagon receptor [2], the “% activity*” value worked out at 86% and the half-maximal effective concentration (EC50) at Glucagon Receptor was 0.07 nM.

B7: mt-250 (peptide)
peptide: Y[Aib]QGTFTSDYSIYLD[Aib]QAA[Aib]EFVNWLLAGGPSSGAPPPSC-NH2
modifications: N-terminus assumed
SMILES: CC[C@H](C)[C@H](NC(=O)[C@H](CO)NC(=O)[C@H](Cc1ccc(O)cc1)NC(=O)[C@H](CC(=O)O)NC(=O)[C@H](CO)NC(=O)[C@@H](NC(=O)[C@H](Cc1ccccc1)NC(=O)[C@@H](NC(=O)CNC(=O)[C@H](CCC(N)=O)NC(=O)C(C)(C)NC(=O)[C@@H](N)Cc1ccc(O)cc1)[C@@H](C)O)[C@@H](C)O)C(=O)N[C@@H](Cc1ccc(O)cc1)C(=O)N[C@@H](CC(C)C)C(=O)N[C@@H](CC(=O)O)C(=O)NC(C)(C)C(=O)N[C@@H](CCC(N)=O)C(=O)N[C@@H](C)C(=O)N[C@@H](C)C(=O)NC(C)(C)C(=O)N[C@@H](CCC(=O)O)C(=O)N[C@@H](Cc1ccccc1)C(=O)N[C@H](C(=O)N[C@@H](CC(N)=O)C(=O)N[C@@H](Cc1c[nH]c2ccccc12)C(=O)N[C@@H](CC(C)C)C(=O)N[C@@H](CC(C)C)C(=O)N[C@@H](C)C(=O)NCC(=O)NCC(=O)N1CCC[C@H]1C(=O)N[C@@H](CO)C(=O)N[C@@H](CO)C(=O)NCC(=O)N[C@@H](C)C(=O)N1CCC[C@H]1C(=O)N1CCC[C@H]1C(=O)N1CCC[C@H]1C(=O)N[C@@H](CO)C(=O)N[C@@H](CS)C(N)=O)C(C)C
B7: the “EC50” value with GIP receptor came to 0.062 nM; with glucagon receptor [1] it was 0.667 nM; with GLP-1 receptor, 0.033 nM. Further, the relative activity stood at 30.6% with GIP receptor, 6.3% with glucagon receptor [1] and 63.6% with GLP-1 receptor.

B8: Peptide J backbone with Q at position 3 (peptide)
peptide: HSQGTFTSDYSKYLDTRRAAEFVAWL[Nle]DE
Consider B8, for which the “% activity*” value with glucagon receptor [2] worked out at 25%.

B9: mt-251 (peptide)
peptide: Y[Aib]QGTFTSDYSIYLDEQAA[Aib]EFVNWLLAGGPSSGAPPPSC-NH2
modifications: N-terminus assumed
SMILES: CC[C@H](C)[C@H](NC(=O)[C@H](CO)NC(=O)[C@H](Cc1ccc(O)cc1)NC(=O)[C@H](CC(=O)O)NC(=O)[C@H](CO)NC(=O)[C@@H](NC(=O)[C@H](Cc1ccccc1)NC(=O)[C@@H](NC(=O)CNC(=O)[C@H](CCC(N)=O)NC(=O)C(C)(C)NC(=O)[C@@H](N)Cc1ccc(O)cc1)[C@@H](C)O)[C@@H](C)O)C(=O)N[C@@H](Cc1ccc(O)cc1)C(=O)N[C@@H](CC(C)C)C(=O)N[C@@H](CC(=O)O)C(=O)N[C@@H](CCC(=O)O)C(=O)N[C@@H](CCC(N)=O)C(=O)N[C@@H](C)C(=O)N[C@@H](C)C(=O)NC(C)(C)C(=O)N[C@@H](CCC(=O)O)C(=O)N[C@@H](Cc1ccccc1)C(=O)N[C@H](C(=O)N[C@@H](CC(N)=O)C(=O)N[C@@H](Cc1c[nH]c2ccccc12)C(=O)N[C@@H](CC(C)C)C(=O)N[C@@H](CC(C)C)C(=O)N[C@@H](C)C(=O)NCC(=O)NCC(=O)N1CCC[C@H]1C(=O)N[C@@H](CO)C(=O)N[C@@H](CO)C(=O)NCC(=O)N[C@@H](C)C(=O)N1CCC[C@H]1C(=O)N1CCC[C@H]1C(=O)N1CCC[C@H]1C(=O)N[C@@H](CO)C(=O)N[C@@H](CS)C(N)=O)C(C)C
As to B9, the “EC50” value with GIP receptor is 0.033 nM; with glucagon receptor [1], 2.76 nM; with GLP-1 receptor, 0.015 nM. In addition, the relative activity amounted to 57.6% in the assay with GIP receptor, 1.52% with glucagon receptor [1] and 140% with GLP-1 receptor.

B10: Peptide J backbone with Orn(Ac) at position 3 (peptide)
peptide: HS[Orn](Ac)GTFTSDYSKYLDTRRAAEFVAWL[Nle]DE
In the case of B10, in the assay with glucagon receptor [2], the “% activity*” value worked out at 7% and a half-maximal effect (EC50 at Glucagon Receptor) was put at 0.92 nM.

B11: Peptide K backbone with Q at position 3 (peptide)
peptide: HSQGTFTSDYSKYLD[Aib]RRAADFVAWLMDE
In the case of B11, the “% activity*” value with glucagon receptor [2] turned out to be 15%.

B12: Peptide J backbone with Dap(urea) at position 3 (peptide)
peptide: HS[Dap](Carbamoyl)GTFTSDYSKYLDTRRAAEFVAWL[Nle]DE
Turning to B12, in the assay with glucagon receptor [2], the “% activity*” value was determined as 13% and the “EC50 at Glucagon Receptor” value came out at 0.48 nM.

B13: mt-255 (peptide)
peptide: Y[Aib]QGTFTSDYSIYLDKQAA[Aib]EFVNWLLAGGPSSGAPPPSC(PEG 40 kDa″)-NH2
Turning to B13, the half-maximal effective concentration (EC50) with GIP receptor came out at 0.013 nM; in the assay with glucagon receptor [1] it was 5.46 nM; in the assay with GLP-1 receptor, 0.018 nM. Further, the figures for the relative activity in the assay with GIP receptor, in the assay with glucagon receptor [1] and in the assay with GLP-1 receptor were 146%, 2.45% and 117%, respectively.

B14: mt-252 (peptide)
peptide: Y[Aib]QGTFTSDYSIYLDKQAA[Aib]EFVNWLLAGGPSSGAPPPSC-NH2
modifications: N-terminus assumed
SMILES: CC[C@H](C)[C@H](NC(=O)[C@H](CO)NC(=O)[C@H](Cc1ccc(O)cc1)NC(=O)[C@H](CC(=O)O)NC(=O)[C@H](CO)NC(=O)[C@@H](NC(=O)[C@H](Cc1ccccc1)NC(=O)[C@@H](NC(=O)CNC(=O)[C@H](CCC(N)=O)NC(=O)C(C)(C)NC(=O)[C@@H](N)Cc1ccc(O)cc1)[C@@H](C)O)[C@@H](C)O)C(=O)N[C@@H](Cc1ccc(O)cc1)C(=O)N[C@@H](CC(C)C)C(=O)N[C@@H](CC(=O)O)C(=O)N[C@@H](CCCCN)C(=O)N[C@@H](CCC(N)=O)C(=O)N[C@@H](C)C(=O)N[C@@H](C)C(=O)NC(C)(C)C(=O)N[C@@H](CCC(=O)O)C(=O)N[C@@H](Cc1ccccc1)C(=O)N[C@H](C(=O)N[C@@H](CC(N)=O)C(=O)N[C@@H](Cc1c[nH]c2ccccc12)C(=O)N[C@@H](CC(C)C)C(=O)N[C@@H](CC(C)C)C(=O)N[C@@H](C)C(=O)NCC(=O)NCC(=O)N1CCC[C@H]1C(=O)N[C@@H](CO)C(=O)N[C@@H](CO)C(=O)NCC(=O)N[C@@H](C)C(=O)N1CCC[C@H]1C(=O)N1CCC[C@H]1C(=O)N1CCC[C@H]1C(=O)N[C@@H](CO)C(=O)N[C@@H](CS)C(N)=O)C(C)C
Take B14: the figures for the “EC50” value with GIP receptor, in the assay with glucagon receptor [1] and with GLP-1 receptor were 0.013 nM, 0.319 nM and 0.018 nM, respectively. Moreover, the results for the relative activity with GIP receptor, in the assay with glucagon receptor [1] and with GLP-1 receptor were 146%, 13.2% and 117%, respectively.
